According to the nanobody polyreactivity screen of Harvey et al. (2022):

Assay: yeast display, Sf9 membrane polyspecificity reagent, FACS + sequencing; frameworks hold sequencing errors
Method in brief: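 A nanobody's polyreactivity label depends on the gate it was sorted from. Yeast display cells were stained with 10% biotinylated, detergent-solubilized Sf9 membrane reagent for 1 hour at 4 °C, enriched on streptavidin microbeads and sorted by FACS. The low and high (top ~1%) gates were set on anti-HA fluorescence for expression and streptavidin fluorescence for reagent binding.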

Row | Sequence | polyreactivity (PSR sort gate)
1 | QVQIVESGGGLVQAGGSLRLSCAASGLTFILYAMGWYRQAPGKERELVAAISYDGGSTYYADSVKGRFTISRDNAKNTVYLQMNSLKPEDTAVYYCAADSYYYQGYRRYNYDYWGQGTQVTVSS | high polyreactivity
2 | QVQLVESGGGLVQAGGSLRLSCAASGNTFHPYAMGWYRQAPGKERELVAAITKSGGSTYYADSVKGRFTISRDNAKNTVYLQMNSLKPEDTAFYYCAAESYIEYYLKYDYWGQGSQVTVSS | low polyreactivity
3 | QVQLVESGGRLVQAGGSLRLSCSASGLTFTNYAMGSYRQAPGKERELVAAISNSGATTYYADSVKGRFTISRDNAKNTVYVQLKSLKPEDTAVYYCAATSYTATWRYYYWGQGTQVTVSS | high polyreactivity
4 | QDQLVESGGGLVQAGGSLRLSCAASGITIYRYVMGCSRQAPGKEREFVASITQSTGSTHYADSVKGRFTISRDNAKNTVYLQMNSLKPEDTAVYYCNAQKIVYYWVTLFPYYYWGQGTQVTVSS | low polyreactivity
5 | QVQLVESGGGLVQAGGSLRLTCAASGLIFYAYAMGWYRPAPWKERELVAAITSGGDTNYADSVKGRFTISRDNAKNTVYLQMNSLKPEDTAVYYCNADPPVFQSVYWRWYHNYDYWGQGTQVTLSS | low polyreactivity
6 | QVQLVESGGGLVQAGGSLRLSCAASGRIFRLYAMGWYRQAPGKERELGAAISSRGGDTYADSVKGRFTISRDNAKNTVYLQMNSLKPEDTAVYYCNDVIYYPYKSGVWYYEYDYWGQGTKVTVSS | low polyreactivity
7 | QVQLVESGGGLVQAGGRLRLSCAASGRTFYINTMGWYRQAPGKERELVAAISSSGDSTYYADSVKGRFTISRDNAKNTVYLQMNSLKPEDTAVYYCATDYGWYDYWGQGTQVTVSS | low polyreactivity
8 | QVQLVESGGGLVQAGGSLRLSCAASGIIFYENAMGWYRQAPGKERELVADITQSGGSTYYADSVKGRFTISRDNAKNTVYLQMNSLKPEDTAVYYCARDGDLWYYKGYGTLFDYWGQGTQVTVSS | low polyreactivity
9 | QVQLVESGGGLVQAGGSLRLSCAASGRTFYIYAMGWYRQAPGKERELVAAISGSGGSTYYADSVKGRFTISRDNAKNTVYFQMNSLKPEDTAVYYCATKLRRSRYVRYDYWGQGTQVTVSS | high polyreactivity
10 | QVQREESGGGLVQAGGSLRLSCAASGNIFYQYAMGWYRLAPGKEREFVAAISISGTSTYADSVKGRFTISRDNAKNTVYLQMNSLKPVDTAVYWGQGTQVTVSS | low polyreactivity
11 | QVQLVESGGGLVQAGGRLRLSCAASGYIFPKNAMGWYRQAPGKERELVAAITGSGGSTYYADSVKGRFTISRDNAKNTVYLQMNSLKPEDTAVYYCAKRSWIEYDYWGQGTQVTVSS | low polyreactivity
12 | QVQLVESGGGIVQAGGSLRLSCAASGITIQGYTMGWYRQEPGKERELVAAISSNGGRTYYADSVKGSFTISRDNAKNTVYLQMNSLKPEDTAVDYCAARKWRLIVDYWGEGTQVTVSS | high polyreactivity
13 | QVQLVESGGGLVQAGGSLRLSCAASGGTFKYYAMGWYRQAPGKERELVADITSGGSTNYADYVKGRFTISRDNAKNTVYLQMNSLKPEDTAVYYCAKRRYWVKYDYWGQGTQVTVSS | high polyreactivity
14 | QVQLVESGGGLVQAGGSLRLSCAASGSTFYDNAMGWYRQAPGKERELVASIRSGGSTKYADSVKGRFTISRDNAKNTVYLQMNSLKPEDTAVYYCATAFIVPFPGSDYWGQGTQVTVSS | low polyreactivity
15 | QGQLVESGGGLVQAGGSLRLSCAASGSTFYIYAMGWYRQAPGKERELVARISGSGGSTYYADSVKGRFTISRDNAKNTVYLQMNSLKPEDTAVYYCAADDIYKYYQYYAFPYYRYDYWGQGTQVTVSS | low polyreactivity
16 | QVQLVESGGGLLQAGGSLRLSSAASGRTFPRYAMGWYRQAPGKERELVAAISVRAGITYYADSVKGRFTISRDNAKNTVYLQMNSLKPEDTAVYYCAKDHWTTSYDEGDYWGQGTQVTVSS | low polyreactivity
17 | QVQLVESGGGLVQAGGSLRLSCAASGITFVFYAMGWYRQAPGKERELVAAISTGGSTNYADTVKGRFTISRDNAKNTVYFQMNSLKPEDTAVYYCAAQYFISISKYDYWGQGTQVTVSS | low polyreactivity
18 | QVQLVESPGGLDQAGGSLRLSGAASGSTLYDNAMGWYRQAPGKERELVAAISRSGGRTYYADSVKGRFTISRDNAKNTVYLHMNSLIPEDTAVYYCNAVVNGPGNYVTYDSWGQGTQVTVSS | high polyreactivity
19 | QVQLVDSGGGLVQAGGSLRLSCAASGSIFFIYAMGWYRQATGKERELVATITSGGSTYYADSVKGRFTISRDNAKNTVYLQMNSLKPEDTAVYYCAKYFVYVGYGRYDYWGQCTQVTVSS | low polyreactivity
20 | QVQLVESGGGLVQAGGSLRLSCAASGSTIGGYAMGWYRQAPGKERELVAAITRSGGRTYYADSVKGRFTISRDNAKKTVYLQMNSLKPEDTAVYFCATLVTNARYDSWGQGTQVTVSS | high polyreactivity
21 | QVQLVESGGGLVQAGGSLRLSCAASGSIFPKYAMGWYRQAPGKERELVAGISRSGGITHYADSVKGRFTISRDNAKNTVYLQMNSLKPEDTAVYYCAALWARALSYYYWGQGTQVTVSS | high polyreactivity
22 | QVQLVESGGGLVQAGGSLRLSCAASGSTFYRYALGWYRQAPGKEREFVAAISRSGGSTNYADSVKGRFTISRDNAKNTVYLQMNSMKPEDTAVYYCAAKYSDYQYGRYYYWGQGTQVTVSS | high polyreactivity

Row | Sequence | polyreactivity (PSR sort gate)
23 | QVQLVESGGGLVQAGGSLRLSCAASGSIFRLNAMGWYRQAPGKERELVAAIDGSDGSTYYADSVKGRFTISRDNAKNTVYLQMNSLKPEDTAVYYCAAERGYPTDYYSGSDDYWGQGTQVTVSS | low polyreactivity
24 | QVQLVESGGGLVQAGGSLRLSCAASGFTFIPYAMGWYRQAPGKERELVASITYSGGRTYYADSVKGRFTISRDNAKNTVYLQMNSLKPEDTAVYYCNARSWGGYYHWGQGTQVTVSS | high polyreactivity
25 | QVQLVESGGGLVQAGGSLRISCAASGITFYFNAMGWFRQAPGKERDLVAVITSVGSTNYADSVKGRFTISRDNAKNTDYIQMNSLKPEDTAVYYCYRTSYVKTPTKRYNYWGQGTQVTVSS | low polyreactivity
26 | QVQLVESGGGLDQAGGSLRLSCAASGSTFYPYAMGWYRQAPGKERDFVAAISYSAGSTYYADSVKGRFTISRDNAKNTVYLQMHSLKPEDTAVYYCADYGWYTYQTSYDYWGQGTQVTVSS | low polyreactivity
27 | QVQLVESGGGLVQAGGSLRLSCAASGSIFPVYTMGWYRQAPGKERELVADIDSGGSTNYADSVKGRFTISRDNAKNTVYLQMNSLKPEVTAVYDCAADYYYYFYSLYIDPYAFDYWGLGTQVTVSS | low polyreactivity
28 | QVQHVESAGGLVQAGGSLRLSCSASGSIFYFYAMGWSRQAPGKERELVATITSSGSTNYADSVKGRFTISRDNAKNTVYLQMNSLKPEDTAVYYCNVDVISLKPYVSSYFAIKYDYWGQGTQVTVSS | low polyreactivity
29 | QVQLVESGGGLVQAGGSLRLSCAASGSIFGSYAMGWYRQAPGKERELVASITRVDSTNYADSVKGRFTISRDNAKNTVYLQMNSLKPEDTAVYYCNAGSRTTAGGMDSWGQGTQVTVSS | low polyreactivity
30 | QVQLVESGGGLVQAGGSLRLSCGASGGIFYLYAMGWSRQAPGKERELVAAITWSADSTYYADSVKGRFTISRDNAKNTVYLQMNSLKPEDTAVYYCNADVAWQYGKGWSWDIDDYWRQGTQVTVSS | low polyreactivity
31 | QVQLVESGGGLVQAGGSLRLSCAASGRIFRYYAMGWYIQAPGKERELVAAISGSGGSTYYADSVKGRFTISRDNAKNTVYLQMNSLKPEDTAVYYCNARYRIPSGEGDHWGQGTQVTVSS | low polyreactivity
32 | QVQLVESGGGLVQAGGSLRLSCAASGSTFNSYAMGWYRQAPGKERELVAAITSSVGSTYYADSVKGRFTISRDNAKYTVYLQMNSLKPEDTAVYYCAADYFSYWYFSGYDYWGQGTQVTVSS | low polyreactivity
33 | QVQLVESGGGLVQAGGSLRLSCAASGRTFVRYAMGWYRQAPGKERELVAAISWSGATTYYADSVKGRFTISRDNAKNTVYLQMNSLKPEDTAVYYCAARFRRGITYEYWGQGTQVTVSS | high polyreactivity
34 | QVQLVESGGGLVQAGGSLRLSCAASGSTLGYNAMGCYRQAPGKERELVAAIRGGDDDTYYADSVKGRFTISRDNAKNTVYLQMNSMNPEDTAVYYCATGDTSIPYSPPGGYDSWGQGTQVTVSS | low polyreactivity
35 | QVQLVESGGGLVQAGGSLRLSCAASGSIFAYYAMGWYRQAPGKERELVAAITWSGGITYYADSVKGRFTISRDNAKNTVYLQMNSLKPEDTAVYYCNADEWPPYEYEYWGQGTQVTVSS | low polyreactivity
36 | QVQLVESGGRLVQAGGSRRLSCAASGSTFYTNDMGWYIQAPGKERELVAAISSGGDYADSVKGRFTISRDNAKNTVYLQMNSLKPEDTAVYYCAKADTKWGQGTQVTVSS | low polyreactivity
37 | QVQLVESGGGIVQAGGSLRLSCAASGSIFHGYAMGWYRQAPGKERELVASITWNGGSTYYADSVKGRFTISRDNAKNTVYLQMNSLKPEDTAVYYCATSKWRGRGRTYDYWGQGTQVTVSS | high polyreactivity
38 | QVQLVESRGGIVQAGGSLRLSSAASGSTFAYNDLGWYRQAPGKERQLVADMRSGGNTNYADSVKGRFTISRDNAKNTVYLQMNSLKPEDTAVYYCATDGYRIDVYHPDYRYDYWGLGTQVTVSS | low polyreactivity
39 | QVQLVESGGGLVQAGGSLRLSCAASGRTLRHYAMGWYRQAPGKERELVAAISSTGSSTYYADSVKGRFTISRDNAKNTVYLQMNCLKPEDTAVYYCNAGKKYVDYGVLSSRYYWGQGTQVTVSS | low polyreactivity
40 | QVQLVESGGGLFQAGGSLRLSCAASGSTFYNYAMGWYRQAPGIERELVAAISSGGSTNYADSVKGRFTISRDNAKYTVFLQMNSLKPEDSAVYYCARRHRVYASRNGHDYWGQGTQVTVSS | low polyreactivity
41 | QVQLVESGGGLVQAGGSLRLSCAASGRIFAYYPMGWYRPAPGKERELVAAISRSGVSTYYADSVKGRFTISRDNAKNTVYLQMNSLKPEDTAVYYCAARWRSGFTSGDYWGQGTQVTVSS | low polyreactivity
42 | QVQLQESGGGLVQEGGSLRLSCAASGTISQEDWMGWYRQAPGKEREFVAAIGLGSNTNYADSLKGRFTISRDNAKNTVYLQMNSLKPEDTAVYYCAVSVWQYSDHVYRGQGTQVTVSS | low polyreactivity
43 | QGQLVESGGGLVQAGGSLRLSCAASGFTISSYAMGWYRQATGKEREMVAAISSSGSRTSYADSVKVRFTISRDIAKNSVYFQMNSLKPEDTAVYYCAARPGDGGYYYWGQGTQVTVSS | high polyreactivity
